± gives the half width of the 95% confidence interval.
Tests used:
[1] = folding stability dG unfold from trypsin proteolysis; higher = more stable
In short: (§1)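 Digests were run with trypsin and chymotrypsin at 11 concentrations in threefold dilutions, plus a no-protease condition, on designed mini-proteins in a PA-tagged cDNA display construct. The mini-proteins were under 80 residues, had no cysteine, and were kept only when AlphaFold2 dimer inter-PAE was above 15. After sequencing, Bayesian fitting of the counts gave K50, from which unfolding free energy was derived against a sequence-predicted unfolded-state K50 and a shared folded-state K50, per protease or combined.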

[2] = folding stability dG unfold (combined trypsin and chymotrypsin); higher = more stable
In short: as §1

[3] = folding stability dG unfold from chymotrypsin proteolysis; higher = more stable
In short: as §1

## SAGGSAGGSAGMRIVIEVPEDTTVEELAKKLADLGYEVEIRVERDENGRLLVVIEIRPKDSAGGSAGGSAGG [r11_1050_TrROS_Hall]
[1]
  folding stability dG unfold: 11.1 ± 0.368 kJ/mol
[2]
  folding stability dG unfold: 11.7 ± 0.586 kJ/mol
[3]
  folding stability dG unfold: 12 ± 0.502 kJ/mol

## SAGGTITIELDGVTIEVRVEEKDGTLTLTAKVYNKDTGEVFEIEITITRKEDGSVTITIKITKIEPLPSAGG [r13_1004_TrROS_Hall]
[1]
  folding stability dG unfold: 10.2 ± 0.669 kJ/mol
[2]
  folding stability dG unfold: 16.2 ± 2.22 kJ/mol
[3]
  folding stability dG unfold: 16.6 ± 1.17 kJ/mol

## SAGKIKIEKENGEVKIEIEVPEEEIEKLKKLLEELKKKGFEVEKVEVKVEKKEDGTVKVTIKVKIKPKPSAG [r5_739_TrROS_Hall]
[1]
  folding stability dG unfold: 7.99 ± 0.544 kJ/mol
[2]
  folding stability dG unfold: 12.5 ± 2.13 kJ/mol
[3]
  folding stability dG unfold: 14.3 ± 1.72 kJ/mol

## SAGGSAGGSTPELLKKLPPGAKVEVETRLVTNEDGSVYKVVKIKIVDKKTNKTLELELVVKLPSAGGSAGGS [r12_892_TrROS_Hall]
[1]
  folding stability dG unfold: 8.91 ± 0.172 kJ/mol
[2]
  folding stability dG unfold: 8.18 ± 0.293 kJ/mol
[3]
  folding stability dG unfold: 6.92 ± 0.218 kJ/mol

## SSDIKIEIDIERNDDGYLTFTIEIRHPDPQQLVDAAKEIILELFPPGVNIDVEPHPDGWVKAPIMFPLPKSA [r9_646_TrROS]
[1]
  folding stability dG unfold: 3.08 ± 0.544 kJ/mol
[2]
  folding stability dG unfold: 5.66 ± 1.05 kJ/mol
[3]
  folding stability dG unfold: 6.81 ± 0.36 kJ/mol

## SAGGMRPMVVTVRYPDGSVQTLVADYDPDTDVIRFPFPSDGTERDIPAGEWREDPDYQVLSETPLSLESAGG [r13_994_JUSTAS]
[1]
  folding stability dG unfold: 6.61 ± 0.188 kJ/mol
[2]
  folding stability dG unfold: 4.05 ± 0.218 kJ/mol
[3]
  folding stability dG unfold: 0.0884 ± 0.46 kJ/mol

## SAGGSAGGSADEPETTTTTTTTTTTKKPAPPAPPKTITLDVEVNGKTLRLTFTSKEALDALSAGGSAGGSAG [r3_426_TrROS_Hall]
[1]
  folding stability dG unfold: 3.89 ± 0.0879 kJ/mol
[2]
  folding stability dG unfold: 4.31 ± 0.628 kJ/mol
[3]
  folding stability dG unfold: 3.96 ± 0.418 kJ/mol

## SPNWKIVEITEMERTDGRVTIKIKIKVPDGRIYIFMPNGKIIEEVPLGDDVELTITFPPNNWPIYIFVLDSA [r9_917_TrROS]
[1]
  folding stability dG unfold: 14.5 ± 0.389 kJ/mol
[2]
  folding stability dG unfold: 18.7 ± 0.753 kJ/mol
[3]
  folding stability dG unfold: 19.6 ± 0.795 kJ/mol

## SAGGSITVSEDESNLTFTIPVPPTEPLTPEEVRAAAEALLAELGPDIRVLSIERLPDGGYRVEAEVRSAGGS [r8_103_JUSTAS]
[1]
  folding stability dG unfold: 8.69 ± 0.138 kJ/mol
[2]
  folding stability dG unfold: 7.84 ± 0.155 kJ/mol
[3]
  folding stability dG unfold: 6.71 ± 0.18 kJ/mol

## SEYSRIEFEDYTVLVVKKTLPNGKPLYLVRLYRKEDPKVDPVEVDSPEEAEEAVKELLKKHLPGEEVEKESA [r9_749_TrMRF]
[1]
  folding stability dG unfold: 9.61 ± 0.46 kJ/mol
[2]
  folding stability dG unfold: 12.9 ± 0.628 kJ/mol
[3]
  folding stability dG unfold: 13.8 ± 0.138 kJ/mol

## SEVKLEVEEEEDGTLRVRLEVKLTREDGREVTRELELELTIELPPVEFETEEERRAALERLLEELEKLLESA [r9_790_TrROS_Hall]
[1]
  folding stability dG unfold: 13.3 ± 0.314 kJ/mol
[2]
  folding stability dG unfold: 14.7 ± 0.544 kJ/mol
[3]
  folding stability dG unfold: 16.3 ± 0.753 kJ/mol

## SAGGSAGGSAGGENDWIPIRMEMTFKLPNGVKITIKMEMWVQPDGDILGMRIHDIEIEVPSAGGSAGGSAGG [r7_356_TrROS]
[1]
  folding stability dG unfold: 15 ± 0.879 kJ/mol
[2]
  folding stability dG unfold: 19 ± 0.879 kJ/mol
[3]
  folding stability dG unfold: 19.9 ± 0.502 kJ/mol

## SAGGSAGGSAGGSSMSSGPGRLSITTSTVDTGSFFKPGGEVEGSKTTTVTVTTLLPPSTPSAGGSAGGSAGG [r7_614_JUSTAS]
[1]
  folding stability dG unfold: 0.879 ± 0.105 kJ/mol
[2]
  folding stability dG unfold: 3.8 ± 0.226 kJ/mol
[3]
  folding stability dG unfold: 5.33 ± 0.28 kJ/mol

## SAGGSAGGSAGGGMAYTVETEVTLTPDGTRVVRTTVTIEDTEVEETHVTPVAPAAPEGLSAGGSAGGSAGGS [r10_898_JUSTAS]
[1]
  folding stability dG unfold: -3.37 ± 0.711 kJ/mol
[2]
  folding stability dG unfold: -0.968 ± 0.339 kJ/mol
[3]
  folding stability dG unfold: -0.331 ± 0.251 kJ/mol

## SAGGSAGGKPKVVELELTTEDGSKVRVVFTEDSVYIYNEETGLLVKYNLKTGKFELKEVYPLEESAGGSAGG [r6_462_TrROS_Hall]
[1]
  folding stability dG unfold: 8.98 ± 0.628 kJ/mol
[2]
  folding stability dG unfold: 12.2 ± 1.17 kJ/mol
[3]
  folding stability dG unfold: 13.6 ± 0.23 kJ/mol

## SAGGSAGMPPDEPVVKTTVIPTSTAVKDAAGNPLTPEELAAAVKAAYPDVEVSFGPGNTLTITLTRSAGGSA [r15_645_JUSTAS]
[1]
  folding stability dG unfold: 5.55 ± 0.247 kJ/mol
[2]
  folding stability dG unfold: 5.23 ± 0.381 kJ/mol
[3]
  folding stability dG unfold: 4.66 ± 0.209 kJ/mol

## SAGGAGPEKAEELARALAAELEEEGREWRFKITYSAEPEILSIDVYPLSEPLVDDAKPGYRTLYYDAPSAGG [r13_693_TrMRF]
[1]
  folding stability dG unfold: 2.76 ± 0.389 kJ/mol
[2]
  folding stability dG unfold: 4 ± 0.502 kJ/mol
[3]
  folding stability dG unfold: 5 ± 1.21 kJ/mol

## SAKKKFKVKEVKVTKHKGKFKIGDKEIEKELYTVNVVIEDENGNKYPFTFTFEKPEELKKFVEKLEEEKSAG [r14_36_TrMRF]
[1]
  folding stability dG unfold: 12.7 ± 0.711 kJ/mol
[2]
  folding stability dG unfold: 15.1 ± 0.837 kJ/mol
[3]
  folding stability dG unfold: 17.05 ± 0.117 kJ/mol

## SAGGSAPPKRRERIIQIPIKMKPGQTADEMVDNIADWIMDLLPPDMRIEIEVEYHPENGWIMVKIESAGGSA [r15_739_TrROS]
[1]
  folding stability dG unfold: 5.07 ± 0.372 kJ/mol
[2]
  folding stability dG unfold: 6.81 ± 1.26 kJ/mol
[3]
  folding stability dG unfold: 8.76 ± 0.351 kJ/mol

## SAGGMPVTLEIVLPNLHDVLGPEFFDALKNITVPNGTPIKKITVKPIGDKTVILIEVDSPEDAKDILGSAGG [r13_269_TrMRF]
[1]
  folding stability dG unfold: 6.02 ± 0.502 kJ/mol
[2]
  folding stability dG unfold: 6.62 ± 0.628 kJ/mol
[3]
  folding stability dG unfold: 6.94 ± 0.711 kJ/mol

## PWRPIMITVRANPNLKVDIYPPNGPQEEIPVDSPEDALKKAQKLLPPNYPIMVKVQNEGKPIATFPFWIPPS [r1_276_TrROS]
[1]
  folding stability dG unfold: 11.9 ± 1.51 kJ/mol
[2]
  folding stability dG unfold: 10.9 ± 2.18 kJ/mol
[3]
  folding stability dG unfold: 10.1 ± 0.586 kJ/mol

— the supplement of paper PMC12764529
